Source: publication PMC4574351, “Tubulin cofactors and Arl2 are cage-like chaperones that regulate the soluble αβ-tubulin pool for microtubule dynamics” (eLife, 2015)

Molecular target: T1, Tubulin cofactor D (TBCD), S. cerevisiae Cin1p (S. cerevisiae, UniProt P40987 1-1014)
T1 construct: Tubulin cofactor D ortholog Cin1p, S. cerevisiae, full-length cDNA; TBCD is insoluble when expressed alone; also called Yeast TBCD (cin1p); His-TBCD; source: E. coli, co-expressed with TBCE and Arl2 from polycistronic vectors; co-purified as TBC-DEG (Ni-NTA, HiTrap SP, Superdex 200); not shown: 6xHis, N-terminal, kept
T1 sequence (looked up): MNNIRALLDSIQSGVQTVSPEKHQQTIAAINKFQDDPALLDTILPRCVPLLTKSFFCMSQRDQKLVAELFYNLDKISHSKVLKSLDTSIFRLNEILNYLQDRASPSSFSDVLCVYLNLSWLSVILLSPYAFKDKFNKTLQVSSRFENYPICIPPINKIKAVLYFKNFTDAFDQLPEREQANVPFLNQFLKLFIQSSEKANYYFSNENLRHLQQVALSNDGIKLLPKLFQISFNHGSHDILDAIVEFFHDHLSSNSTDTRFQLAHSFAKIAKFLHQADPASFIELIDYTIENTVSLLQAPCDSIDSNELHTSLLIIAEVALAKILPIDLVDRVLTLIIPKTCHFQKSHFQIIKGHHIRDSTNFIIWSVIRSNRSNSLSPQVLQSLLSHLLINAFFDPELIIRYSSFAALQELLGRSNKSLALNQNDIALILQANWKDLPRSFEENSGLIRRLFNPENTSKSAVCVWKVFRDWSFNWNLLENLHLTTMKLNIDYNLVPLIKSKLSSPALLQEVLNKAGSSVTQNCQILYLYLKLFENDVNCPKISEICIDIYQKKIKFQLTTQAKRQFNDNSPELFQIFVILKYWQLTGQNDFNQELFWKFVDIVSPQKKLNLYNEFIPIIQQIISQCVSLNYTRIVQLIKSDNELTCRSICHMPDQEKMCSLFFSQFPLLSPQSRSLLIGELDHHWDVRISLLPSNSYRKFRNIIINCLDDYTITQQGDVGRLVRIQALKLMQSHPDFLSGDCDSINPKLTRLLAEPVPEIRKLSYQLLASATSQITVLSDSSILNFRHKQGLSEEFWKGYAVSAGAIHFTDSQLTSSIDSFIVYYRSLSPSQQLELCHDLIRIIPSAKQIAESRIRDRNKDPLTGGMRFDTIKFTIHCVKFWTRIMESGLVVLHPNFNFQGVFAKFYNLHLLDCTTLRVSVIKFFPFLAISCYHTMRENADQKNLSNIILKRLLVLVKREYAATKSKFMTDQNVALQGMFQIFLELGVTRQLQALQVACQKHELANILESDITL
Test: SEC-MALS; WTC-03S5 column; purified TBC-DEG (subunits co-expressed and co-purified), αβ-tubulin, TBCC and their complexes; ternary complex with GDP·ALFx (wild type) or GTP (Q73L)
Details: both partners purified

B1: Arl2 GTPase, S. cerevisiae Cin4p (enzyme, UniProt P39110 1-191, looked up)
chain: MGLLSIIRKQKLRDKEIRCLILGLDNSGKSTIVNKLLPKDEQNNDGIMPTVGFQIHSLMIKDVTISLWDIGGQRTLRPFWDNYFDKTQAMIWCIDVSLSMRFDETLQELKELINRDENRIGYECAVIVVLNKIDLVEDKSELHRRCLLVESELKCLFKPDIRIELVKCSGVTGEGIDNLRDRLVESCHFTQ
notes: ADP ribosylation factor-like 2 ortholog Cin4p, S. cerevisiae, full-length cDNA; Tags were not tolerated on either end of Arl2; Insoluble when expressed alone; also called Yeast Arl2 (cin4p); source: E. coli, co-expressed with TBCD and TBCE from polycistronic vectors; co-purified as TBC-DEG (Ni-NTA, HiTrap SP, Superdex 200)
  stoichiometry N: 1
